Experimental findings from patent US20240082401A1 are described below.

In assay [1] the target is BCMA-41BB-CD3-CAR (monospecific BCMA CAR), expressed on T cells. The experiment in a line: FACS, donor #57 single BCMA CAR-T cells, goat anti-mouse F(ab)2 staining. (In general: A flow cytometer gives signals particle by particle.)
Assay [2] deals with monospecific CS1 CAR, expressed on T cells. The experiment in a line: FACS, donor #57 CS1 CAR-T cells; detection reagent not named in the sentence (taken as anti-mouse F(ab)2).
In assay [3] the target is CS1-BCMA-41BB-CD3 CAR (bispecific CS1-BCMA chimeric antigen receptor), expressed on T cells. The experiment in a line: FACS, donor #57 T cells, goat anti-mouse F(ab)2 staining.
Chain of CS1-BCMA-41BB-CD3 CAR (bispecific CS1-BCMA chimeric antigen receptor), expressed on T cells (chain, as listed by the source mutant): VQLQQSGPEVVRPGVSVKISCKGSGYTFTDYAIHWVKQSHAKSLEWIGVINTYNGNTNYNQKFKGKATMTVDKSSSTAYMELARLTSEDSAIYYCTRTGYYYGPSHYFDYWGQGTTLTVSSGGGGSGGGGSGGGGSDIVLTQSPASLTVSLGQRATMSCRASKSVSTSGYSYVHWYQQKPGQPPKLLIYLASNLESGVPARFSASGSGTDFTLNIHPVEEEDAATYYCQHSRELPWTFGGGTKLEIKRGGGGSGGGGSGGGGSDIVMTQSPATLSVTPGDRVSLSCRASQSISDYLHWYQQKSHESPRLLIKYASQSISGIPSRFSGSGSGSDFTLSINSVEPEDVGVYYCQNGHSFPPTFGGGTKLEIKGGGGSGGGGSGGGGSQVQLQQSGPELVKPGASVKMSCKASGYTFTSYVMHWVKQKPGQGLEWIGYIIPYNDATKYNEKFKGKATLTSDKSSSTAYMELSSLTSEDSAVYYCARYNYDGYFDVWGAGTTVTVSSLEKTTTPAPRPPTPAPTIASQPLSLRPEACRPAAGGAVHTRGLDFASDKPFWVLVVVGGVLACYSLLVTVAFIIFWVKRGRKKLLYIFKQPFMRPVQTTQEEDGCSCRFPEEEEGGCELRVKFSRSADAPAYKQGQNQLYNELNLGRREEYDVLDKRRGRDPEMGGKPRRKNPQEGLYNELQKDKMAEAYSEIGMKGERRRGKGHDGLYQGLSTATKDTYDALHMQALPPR
The target is the same in assay [4]. The assay can be described thus: FACS, donor #890 T cells, goat anti-mouse F(ab)2 staining.
For assay [5] the target is unchanged. The assay can be described thus: FACS of CAR-transduced T cells stained with biotinylated goat anti-mouse F(ab)2 and PE-streptavidin.

With “Biotin-labeled polyclonal goat anti-mouse F(ab)2 antibody (Life Technologies)”, the proportion of CAR cells detected is 57% in assay [1] and > 70% in assay [3]. For the same substance, the percentage of CAR+ cells in assay [2] worked out at 68%. Moreover, the proportion of CAR+ cells detected in assay [4] amounted to 81%. In assay [5], the percentage of CAR+ cells detected is > 95%.
